From patent US20160039904A1, “STABILIZED SINGLE HUMAN CD4 DOMAINS AND FUSION PROTEINS” (priority 2013, published 2016) come the findings set out here.

Holding throughout (assay type): cell-based
One assay relates to HIV-1 Env Bal. The assay is described as follows: HIV-1 Env-mediated cell-cell fusion. As to conditions: Table 4, clade B, R5.
The test system of a further assay is HIV-1 Env JRFL. The assay is described as follows: HIV-1 Env-mediated cell-cell fusion. As to conditions: Table 4, clade B, R5.
The next assay deals with HIV-1 JRFL. The assay is described as follows: Pseudotyped HIV-1 neutralization (HOS-CD4-CCR5 cells). The following applies: Table 2, clade B, R5. Here is the method: (§1) To determine the potency and breadth of HIV-1 neutralization by the D1 mutants, viruses pseudotyped with Envs from HIV-1 isolates representing clades A-E and using either CCR5 (R5) or CXCR4 (X4) or both (R5X4) as a coreceptor were included. Pseudoviruses were derived from 293T cells and a neutralization assay was performed in duplicate using HOS-CD4-CCR5 (for all R5 and dual tropic viruses) or HOS-CD4-CXCR4 cell lines as described in Chen et al., Proc. Natl. Acad. Sci. USA, 105: 17121-17126 (2008)). Luminescence was measured 48 hours post-infection and the percentage neutralization was calculated by the following formula: (1—average RLU of inhibitor-containing wells/average RLU or virus-only wells)×100.

Another assay deals with HIV-1 Bal. The assay is described as above. As to conditions: Table 2, clade B, R5. Here is the method: as §1

B1: m36.4: engineered single human antibody domain targeting a CD4i epitope on HIV-1 gp120, SEQ ID NO: 15 (antibody, V domains shown)
VH: QVQLVQSGGGLVQPGGSLRLSCAASAFDFSDYEMSWVREAPGKGLEWIGEINDSGNTIYNPSLKSRVTISRDNSKNTLYLQMNTLRAEDTAIYYCAIYGGNSGGEYWGQGTLVTVSS
Consider B1, for which the IC90 in the assay on HIV-1 Env Bal was 235 nM; in the assay on HIV-1 Env JRFL it was 1080 nM; in the assay with HIV-1 JRFL, 106 nM; in the assay on HIV-1 Bal, 75 nM. The IC50 in the assay with HIV-1 Env JRFL turned out to be 128 nM; with HIV-1 JRFL it was 18 nM; with HIV-1 Bal, 16 nM.
